Target: T1, tryptophan 2-C-methyltransferase (TsrM) from Streptomyces laurentii (Streptomyces laurentii, UniProt C0JRZ9 1-599)
T1 sequence (looked up): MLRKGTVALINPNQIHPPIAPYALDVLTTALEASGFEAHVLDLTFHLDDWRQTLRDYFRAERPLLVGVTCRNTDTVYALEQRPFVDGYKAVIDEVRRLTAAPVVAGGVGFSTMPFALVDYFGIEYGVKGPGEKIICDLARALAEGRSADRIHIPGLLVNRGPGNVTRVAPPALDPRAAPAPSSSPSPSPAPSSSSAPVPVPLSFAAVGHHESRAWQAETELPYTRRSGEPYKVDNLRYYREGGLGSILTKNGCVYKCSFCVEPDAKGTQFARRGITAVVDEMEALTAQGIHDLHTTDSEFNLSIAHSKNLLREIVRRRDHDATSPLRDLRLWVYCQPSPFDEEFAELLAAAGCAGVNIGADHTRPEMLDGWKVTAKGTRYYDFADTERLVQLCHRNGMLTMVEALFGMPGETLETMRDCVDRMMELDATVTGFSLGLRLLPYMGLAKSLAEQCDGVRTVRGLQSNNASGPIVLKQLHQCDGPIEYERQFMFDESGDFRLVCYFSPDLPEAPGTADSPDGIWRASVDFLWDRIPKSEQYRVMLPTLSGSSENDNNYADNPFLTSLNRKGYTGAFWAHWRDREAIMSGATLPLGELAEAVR
Assay: BLI

B1: Streptomyces cattleya [4Fe-4S] ferredoxin Fdx1 (natural protein, UniProt F8K3M7 1-106, looked up)
chain: MTYVIAQPCVDVKDKACIEECPVDCIYEGQRSLYIHPDECVDCGACEPVCPVEAIFYEDDTPEEWKDYYKANVEFFDELGSPGGASKLGLIERDHPFIAALPPQNG
modifications: biotinylated through incubation with 1 equivalent of NHS-PEG4-Biotin
Q: With B1 as the binder, how does the Kd read?
A: The Kd was 40 µM.
